The values that follow come from article PMC7968844.

Read-outs that look alike come from different tables or passages of the source.

As for “ERα: ERα-2M (T553A + S554A) in GREB1-KO cells”, the degradation_or_half_life entry reads like this: (O-GlcNAc at S554) “no change”; (O-GlcNAc at T553) “no change”.

Take ERα: GREB1-KO: the degradation_or_half_life entry by setting is: (O-GlcNAc at S554) “decreases”; (O-GlcNAc at T553) “decreases”.
